From patent US20150125444A1 (AstraZeneca / MedImmune, published 2015)

T1: Human FcγRIIb extracellular domain (human, UniProt P31994 43-217)
T1 construct: extracellular domain
T1 sequence (looked up): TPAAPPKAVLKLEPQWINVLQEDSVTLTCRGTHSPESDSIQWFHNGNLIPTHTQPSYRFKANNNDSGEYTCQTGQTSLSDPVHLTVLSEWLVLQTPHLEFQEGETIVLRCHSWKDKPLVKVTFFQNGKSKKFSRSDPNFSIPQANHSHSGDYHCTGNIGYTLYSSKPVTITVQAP

T2: Human FcγRIIa extracellular domain (human, UniProt P12318 34-217)
T2 construct: extracellular domain
T2 sequence (looked up): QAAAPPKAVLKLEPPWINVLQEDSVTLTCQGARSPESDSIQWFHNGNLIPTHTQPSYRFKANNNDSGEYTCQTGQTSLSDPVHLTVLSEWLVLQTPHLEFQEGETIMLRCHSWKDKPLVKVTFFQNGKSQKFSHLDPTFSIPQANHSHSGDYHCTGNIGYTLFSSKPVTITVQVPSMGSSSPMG


Assays:
[1] = molecular target: Human FcRn (extracellular domain) (human, UniProt P55899 24-297); test: SPR (ProteOn XPR36), antibody immobilised, steady state, pH 6.0
Method: (§1) Experiments were performed using the ProteOn XPR36 surface plasmon resonance system (Bio Rad). Phosphate buffered saline with 0.005% Tween 20 (PBS/Tween), pH 7.4 was used as running buffer for most experiments with the exception of Human FcRn (extracellular domain) binding in which Phosphate buffered saline with 0.005% Tween 20 (PBS/Tween), pH 6.0 was used. All experiments were performed at 25° C. Antibodies were immobilized on a ProteOn™ GLC Sensor Chip (#176-5011) using EDAC (1-Ethyl-3-[3-dimethylaminopropyl]carbodiimide) and sulfo-NHS (N-hydroxysulfosuccinimide) to an R.U. (response unit) level of 4000-6000. C1q, FcγRI, FcγRIIa, FcγRIIb, FcγRIII(158V), FcγRIII(158F), and FcRn were then flowed over the IgG immobilized surface at various concentrations at a rate of 25 μl/minute for a long enough period of time to achieve steady state, or near steady state. Binding (if any could be determined) was quantified via steady state equilibrium binding analysis using the ProteOn software. Human FcγRI, FcγRIIa, FcγRIIb, FcγRIII(158V), FcγRIII(158F), and FcRn extracellular domains were generated via mammalian expression vectors in house. Human C1q was obtained from Quidel (CA).

[2] = molecular target: T3, Human FcγRIIIa (158F) extracellular domain (human, UniProt P08637 17-208); test: SPR (ProteOn XPR36), antibody immobilised, steady state, pH 7.4
T3 construct: extracellular domain; also called FcγRIII(158F)
Method: as §1

[3] = molecular target: T1, Human FcγRIIb extracellular domain; test: as above
Method: as §1

Human C1q = molecular target: T4, Human C1q (human, UniProt P02745 23-245; P02746 28-253; P02747 29-245); test: as above
T4 construct: Bought complement protein; In the CDC assay C1q came with human serum
Method: as §1

[4] = molecular target: T5, Human FcγRIIIa (158V) extracellular domain (human, UniProt P08637 17-208); test: as above
T5 construct: extracellular domain; Position 158 is the usual allotype numbering (mature protein), not the precursor numbering of the database entry; also called FcγRIII(158V)
Method: as §1

[5] = molecular target: T2, Human FcγRIIa extracellular domain; test: as above
Method: as §1

[6] = molecular target: T6, Human FcγRIa extracellular domain (human, UniProt P12314 16-292); test: as above
T6 construct: extracellular domain
Method: as §1

T4 sequence (P02745 23-245 limits assumed, chain 1 of 3): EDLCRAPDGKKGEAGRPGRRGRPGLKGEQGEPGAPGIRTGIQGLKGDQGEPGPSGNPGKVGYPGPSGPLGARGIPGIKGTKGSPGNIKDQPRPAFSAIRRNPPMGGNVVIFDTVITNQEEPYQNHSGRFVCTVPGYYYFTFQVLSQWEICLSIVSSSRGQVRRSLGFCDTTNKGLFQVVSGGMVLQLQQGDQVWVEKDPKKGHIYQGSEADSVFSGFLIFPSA
T4 sequence (P02746 28-253 limits assumed, chain 2 of 3): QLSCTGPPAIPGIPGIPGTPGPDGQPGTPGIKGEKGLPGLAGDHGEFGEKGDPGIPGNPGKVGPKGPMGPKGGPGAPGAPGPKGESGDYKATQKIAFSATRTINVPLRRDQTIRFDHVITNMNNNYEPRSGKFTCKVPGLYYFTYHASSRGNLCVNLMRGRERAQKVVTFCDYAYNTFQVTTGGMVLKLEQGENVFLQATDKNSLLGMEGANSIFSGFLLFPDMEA
T4 sequence (P02747 29-245 limits assumed, chain 3 of 3): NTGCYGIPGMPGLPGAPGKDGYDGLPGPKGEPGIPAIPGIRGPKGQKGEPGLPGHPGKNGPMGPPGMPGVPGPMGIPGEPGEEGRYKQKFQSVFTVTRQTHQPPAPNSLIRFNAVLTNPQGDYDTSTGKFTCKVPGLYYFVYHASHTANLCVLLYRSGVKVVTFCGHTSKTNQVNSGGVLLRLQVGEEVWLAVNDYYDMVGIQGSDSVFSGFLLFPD
T3 sequence (P08637 17-208): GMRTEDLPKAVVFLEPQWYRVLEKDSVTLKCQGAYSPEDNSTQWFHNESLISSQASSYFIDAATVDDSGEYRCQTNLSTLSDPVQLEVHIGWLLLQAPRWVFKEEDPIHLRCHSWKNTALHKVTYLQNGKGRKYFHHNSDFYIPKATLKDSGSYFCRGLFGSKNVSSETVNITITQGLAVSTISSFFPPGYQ
T5 sequence (P08637 17-208 F176V): as the sequence (P08637 17-208) above, with F160V counted along it
Human FcRn (extracellular domain), sequence (P55899 24-297): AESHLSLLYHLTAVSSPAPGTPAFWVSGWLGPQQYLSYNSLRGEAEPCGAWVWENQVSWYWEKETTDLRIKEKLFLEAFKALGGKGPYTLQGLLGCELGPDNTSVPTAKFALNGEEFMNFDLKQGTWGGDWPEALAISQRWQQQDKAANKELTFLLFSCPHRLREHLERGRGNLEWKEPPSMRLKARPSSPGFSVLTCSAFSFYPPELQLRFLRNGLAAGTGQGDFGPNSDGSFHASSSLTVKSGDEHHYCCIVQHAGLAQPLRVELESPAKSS
T6 sequence (P12314 16-292): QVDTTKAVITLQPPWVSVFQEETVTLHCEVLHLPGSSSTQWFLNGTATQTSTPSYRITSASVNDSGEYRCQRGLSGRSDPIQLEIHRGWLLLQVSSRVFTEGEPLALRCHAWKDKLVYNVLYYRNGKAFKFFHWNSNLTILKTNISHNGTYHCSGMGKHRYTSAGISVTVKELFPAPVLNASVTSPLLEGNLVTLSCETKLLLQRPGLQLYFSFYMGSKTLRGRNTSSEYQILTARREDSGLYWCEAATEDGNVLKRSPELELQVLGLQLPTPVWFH

Row | Kd [1] [nM] | Kd [2] [nM] | Kd [3] [nM] | Kd (Human C1q) [nM] | Kd [4] [nM] | Kd [5] [nM] | Kd [6] [nM] | binding result [2] | binding result [3] | binding result (Human C1q) | binding result [4] | binding result [5] | binding result [6] | Binder
1 |  |  |  |  |  |  |  | no binding | no binding | no binding | no binding | no binding | no binding | Ab4 (anti-C5a antibody 1B8) with FAQ-YTE variant IgG1 Fc domain (antibody, Full IgG1; also called Ab4 FAQ-YTE) heavy: EVQLLESGGGLVQPGGSLRLSCAASGFTFSSYVMNWVRQAPGKGLEWVSSISPSGGRTWYADSVKGRFTISRDNSKNTLYLQMNSLRAEDTAVYYCARSDGSAAGFLGYWGQGTLVTVSSASTKGPSVFPLAPSSKSTSGGTAALGCLVKDYFPEPVTVSWNSGALTSGVHTFPAVLQSSGLYSLSSVVTVPSSSLGTQTYICNVNHKPSNTKVDKRVEPKSCDKTHTCPPCPAPEFAGGPSVFLFPPKPKDTLYITREPEVTCVVVDVSHEDPEVKFNWYVDGVEVHNAKTKPREEQYNSTYRVVSVLTVLHQDWLNGKEYKCQVSNKALPAPIEKTISKAKGQPREPQVYTLPPSREEMTKNQVSLTCLVKGFYPSDIAVEWESNGQPENNYKTTPPVLDSDGSFFLYSKLTVDKSRWQQGNVFSCSVMHEALHNHYTQKSLSLSPGK light: QSALTQPPSASGTPGQRVTISCSGTNSNIGSNYVFWYQQLPGTAPKLLIFESNRRPSGVPDRFSGSKSDTSASLAISGLRSEDEADYYCATWDDTLIAPVFGSGTKVTVLGQPKANPTVTLFPPSSEELQANKATLVCLISDFYPGAVTVAWKADSSPVKAGVETTTPSKQSNNKYAASSYLSLTPEQWKSHRSYSCQVTHEGSTVEKTVAPAEC
2 | 350 |  |  |  |  |  |  | no binding | no binding | no binding | no binding | no binding | no binding | Ab4 (anti-C5a antibody 1B8) with FQG-YTE variant IgG1 Fc domain (antibody, Full IgG1; also called Ab4 FQG-YTE) heavy: EVQLLESGGGLVQPGGSLRLSCAASGFTFSSYVMNWVRQAPGKGLEWVSSISPSGGRTWYADSVKGRFTISRDNSKNTLYLQMNSLRAEDTAVYYCARSDGSAAGFLGYWGQGTLVTVSSASTKGPSVFPLAPSSKSTSGGTAALGCLVKDYFPEPVTVSWNSGALTSGVHTFPAVLQSSGLYSLSSVVTVPSSSLGTQTYICNVNHKPSNTKVDKRVEPKSCDKTHTCPPCPAPEFQGGPSVFLFPPKPKDTLYITREPEVTCVVVDVSHEDPEVKFNWYVDGVEVHNAKTKPREEQYNSTYRVVSVLTVLHQDWLNGKEYKCKVSNKALPAGIEKTISKAKGQPREPQVYTLPPSREEMTKNQVSLTCLVKGFYPSDIAVEWESNGQPENNYKTTPPVLDSDGSFFLYSKLTVDKSRWQQGNVFSCSVMHEALHNHYTQKSLSLSPGK light: QSALTQPPSASGTPGQRVTISCSGTNSNIGSNYVFWYQQLPGTAPKLLIFESNRRPSGVPDRFSGSKSDTSASLAISGLRSEDEADYYCATWDDTLIAPVFGSGTKVTVLGQPKANPTVTLFPPSSEELQANKATLVCLISDFYPGAVTVAWKADSSPVKAGVETTTPSKQSNNKYAASSYLSLTPEQWKSHRSYSCQVTHEGSTVEKTVAPAEC
3 | 270 |  |  |  |  |  |  |  |  |  |  |  |  | Ab4 (anti-C5a antibody 1B8) with FES-YTE variant IgG1 Fc domain (antibody, Full IgG1; also called Ab4 FES-YTE) heavy: EVQLLESGGGLVQPGGSLRLSCAASGFTFSSYVMNWVRQAPGKGLEWVSSISPSGGRTWYADSVKGRFTISRDNSKNTLYLQMNSLRAEDTAVYYCARSDGSAAGFLGYWGQGTLVTVSSASTKGPSVFPLAPSSKSTSGGTAALGCLVKDYFPEPVTVSWNSGALTSGVHTFPAVLQSSGLYSLSSVVTVPSSSLGTQTYICNVNHKPSNTKVDKRVEPKSCDKTHTCPPCPAPEFEGGPSVFLFPPKPKDTLYITREPEVTCVVVDVSHEDPEVKFNWYVDGVEVHNAKTKPREEQYNSTYRVVSVLTVLHQDWLNGKEYKCKVSNKALPASIEKTISKAKGQPREPQVYTLPPSREEMTKNQVSLTCLVKGFYPSDIAVEWESNGQPENNYKTTPPVLDSDGSFFLYSKLTVDKSRWQQGNVFSCSVMHEALHNHYTQKSLSLSPGK light: QSALTQPPSASGTPGQRVTISCSGTNSNIGSNYVFWYQQLPGTAPKLLIFESNRRPSGVPDRFSGSKSDTSASLAISGLRSEDEADYYCATWDDTLIAPVFGSGTKVTVLGQPKANPTVTLFPPSSEELQANKATLVCLISDFYPGAVTVAWKADSSPVKAGVETTTPSKQSNNKYAASSYLSLTPEQWKSHRSYSCQVTHEGSTVEKTVAPAEC

Further lines, the binder ahead of its results:

Row | Binder | Kd [1] [nM] | Kd [2] [nM] | Kd [3] [nM] | Kd (Human C1q) [nM] | Kd [4] [nM] | Kd [5] [nM] | Kd [6] [nM] | binding result [2] | binding result [3] | binding result (Human C1q) | binding result [4] | binding result [5] | binding result [6]
4 | Ab3 (anti-CD20 antibody HB20.3) with wild-type IgG1 Fc domain (antibody, Full human IgG1 kappa antibody; also called Ab3 WT; WT) heavy: not shown light: DIQMTQSPASLSASVGETVTITCRASGNIHNYLAWYQQKQGKSPQLLVYNAKTLADGVPSRFSGSGSGTQFSLKINSLQPEDFGSYYCQHFWSTPWTFGGGTKLEIKRTVAAPSVFIFPPSDEQLKSGTASVVCLLNNFYPREAKVQWKVDNALQSGNSQESVTEQDSKDSTYSLSSTLTLSKADYEKHKVYACEVTHQGLSSPVTKSFNRGEC | 670 | 4700 | 6000 | 103 | 900 | 1200 | 78 |  |  |  |  |  | 
5 | Ab3 (anti-CD20 antibody HB20.3) with YTE variant IgG1 Fc domain (antibody, Full IgG1; also called Ab3 YTE) heavy: QVQLQQPGAELVKPGASVKMSCKASGFTFTNYNMHWLKQTPGQGLEWIGAIYPENGDTSYNQKFKGKATLTADKASSTAYMHLSSLTSEDSAVYFCARFYYYGSYYGAMDYWGQGTSVTVSSASTKGPSVFPLAPSSKSTSGGTAALGCLVKDYFPEPVTVSWNSGALTSGVHTFPAVLQSSGLYSLSSVVTVPSSSLGTQTYICNVNHKPSNTKVDKRVEPKSCDKTHTCPPCPAPELLGGPSVFLFPPKPKDTLYITREPEVTCVVVDVSHEDPEVKFNWYVDGVEVHNAKTKPREEQYNSTYRVVSVLTVLHQDWLNGKEYKCKVSNKALPAPIEKTISKAKGQPREPQVYTLPPSREEMTKNQVSLTCLVKGFYPSDIAVEWESNGQPENNYKTTPPVLDSDGSFFLYSKLTVDKSRWQQGNVFSCSVMHEALHNHYTQKSLSLSPGK light: DIQMTQSPASLSASVGETVTITCRASGNIHNYLAWYQQKQGKSPQLLVYNAKTLADGVPSRFSGSGSGTQFSLKINSLQPEDFGSYYCQHFWSTPWTFGGGTKLEIKRTVAAPSVFIFPPSDEQLKSGTASVVCLLNNFYPREAKVQWKVDNALQSGNSQESVTEQDSKDSTYSLSSTLTLSKADYEKHKVYACEVTHQGLSSPVTKSFNRGEC | 235 | 6100 | 1600 | 70 | 800 | 2800 | 140 |  |  |  |  |  | 
6 | Ab4 (anti-C5a antibody 1B8) with wild-type IgG1 Fc domain (antibody, Full human IgG1 lambda antibody; also called Ab4 WT; WT) heavy: not shown light: QSALTQPPSASGTPGQRVTISCSGTNSNIGSNYVFWYQQLPGTAPKLLIFESNRRPSGVPDRFSGSKSDTSASLAISGLRSEDEADYYCATWDDTLIAPVFGSGTKVTVLGQPKANPTVTLFPPSSEELQANKATLVCLISDFYPGAVTVAWKADSSPVKAGVETTTPSKQSNNKYAASSYLSLTPEQWKSHRSYSCQVTHEGSTVEKTVAPAEC | 1070 | 1600 | 2500 | 250 | 380 | 1000 | 31 |  |  |  |  |  | 
